Experimental data published in patent publication US20050271676A1, “Inducing cellular immune responses to human immunodeficiency virus-1 using peptide and nucleic acid compositions” (Epimmune Inc., priority 1993, published 2005).

Columns and labels:
[1] = target: HLA-A*1101 (Homo sapiens, UniProt P04439, A114D/D185E/E176A/F33Y/L180Q/S129P/T187R); test: purified HLA class I binding assay, A*1101; conditions: for A*1101 (HIV A11 Motif Peptides with Binding Information): binding value to purified HLA-A*1101 in Table XVII; for A*1101 binding: HIV A11 motif peptides (GAG)
[2] = target: T1, HLA-B*0702 (Homo sapiens, UniProt P01889); test: purified HLA class I binding assay, B*0702; conditions: for B*0702 binding (HIV B07 Super Motif Peptides with Binding Information): purified HLA-B*0702, binding value without unit; for B*0702 (binding information): HIV B07 supermotif peptides, binding value for purified HLA-B*0702, unit not given
T1 construct: endogenous in cells; host or cells: GM3107

[3] = target: T2, HLA-A*0301 (Homo sapiens, UniProt P04439); test: purified HLA class I binding assay, A*0301; conditions: for A*0301 binding information: HIV A03 supermotif peptides; for A0301 (binding information): HIV A03 motif peptides; for A0301 (binding information) / A0301 (binding information, HIV A03 motif peptides): Table XVI
T2 construct: endogenous in cells; host or cells: GM3107

[4] = target: HLA-A*0201 (Homo sapiens, UniProt P04439, D140Y/D185E/D98H/E176V/E277Q/G131W/G231S/I119V/I121R/I166T/I218V/L300P/L318F/N151K/N90K/P208A/P217A/Q86G/Q94H/R138H/R169H/T345S); test: purified HLA class I binding assay, A*0201; conditions: Table VIII, unit not given
[5] = target: T3, HLA-DRB1*0701 (DR7) (Homo sapiens, UniProt P01903+P01911, A100R/A102G/A103Q/D57E/D86V/E43K/F76Y/K127E/L162R/M171V/P40G/Q125H/Q99D/R33Q/R42Y/R54Q/S133A/S66F/T210M/V115G/Y107V/Y59L/Y89S); test: biochemical; type: binding
T3 construct: endogenous in cells; host or cells: Pitout

[6] = binding value to purified HLA-A*0301, unit not given
[7] = HIV A02 Super Motif Peptides with Binding Information
[8] = HIV POL-derived peptides, unit not given
[9] = Table XVII, HIV A11 motif peptides, binding value A*1101, unit not given
[10] = HIV POL-derived A03 motif peptides, binding value for purified HLA-A*0301, unit not given

AANREIKLGK
A*1101 (HIV A11 Motif Peptides with Binding Information) ([1]; unit not given): 0.0016

ANRIETKLGK
A*1101 (HIV A11 Motif Peptides with Binding Information) ([1]; unit not given): 0.0001

APTKAKRRVV
B*0702 binding (HIV B07 Super Motif Peptides with Binding Information) [2]: 0.1200

ATLYCVIIQR
A*0301 binding information ([3]; Table IX, unit not given): 0.0150
A0301 (HIV A03 Motif Peptides with Binding Information) [3, 6]: 0.0150
A*1101 (binding information) ([1]; HIV A03 supermotif peptides, Table IX, unit not given): 0.7100
A*1101 binding ([1]; Table XVII, unit not given): 0.7100

ATWIPCWEFV
A*0201 (binding information) ([4]; HIV A02 supermotif peptides): 0.0013

AVDLSIIFLK
A0301 (binding information) [3, 6]: 0.0740
A*1101 (binding information) ([1]; HIV A11 motif peptides, Table XVII, unit not given): 1.1000

CVKLTPLCV
A*0201 (binding information) [4, 7]: 0.0002

CVKLTPLCVT
A*0201 (binding information) ([4]; HIV A02 super motif peptides): 0.0001

DPEIVMIISF
B*0702 binding (HIV B07 Super Motif Peptides with Binding Information) [2]: 0.0001

DTEVIINVWA
A*0201 (binding information) [4, 7]: 0.0001

DTEYIINVWAT
A*0201 (binding information) ([4]; HIV A02 super motif peptides): 0.0001

DVKQLTEAVQ
A0301 (binding information, HIV A03 motif peptides) [3, 8]: 0.0048
A*1101 (HIV A11 Motif Peptides with Binding Information) ([1]; unit not given): 0.0240

EILKEPVIIGV
A*0201 (binding information) ([4]; HIV A02 supermotif peptides): 0.0007

ELQAIIILAL
A*0201 (binding information) ([4]; HIV A02 super motif peptides): 0.0001

EPFKNLKTGK
B*0702 (binding information) [2]: 0.0001

EPFRDYVDRP
B*0702 binding (HIV B07 Super Motif Peptides with Binding Information) [2]: 0.00012

EPFREYVIIRF
B*0702 binding (HIV B07 Super Motif Peptides with Binding Information) [2]: 0.0001

EPIPIIIYCA
B*0702 binding (HIV B07 Super Motif Peptides with Binding Information) [2]: 0.0001

EPIVGAEIP
B*0702 (binding information) [2]: 0.0001

EPPFLWMGYE
B*0702 (binding information) [2]: 0.0001

EPVDPRLEPW
B*0702 (binding information) [2]: 0.0001

EPVIIGVYY
B*0702 binding (HIV B07 Super Motif Peptides with Binding Information) [2]: 0.0001

EVIINVWATIIA
A*0201 (binding information) ([4]; HIV A02 super motif peptides): 0.0001

FIHNFKRKG
DR7 binding information [5]: 0.0048

FLGKIWPSIIK
A0301 (binding information) ([3]; binding value unit not given): 0.0200
A*1101 binding ([1]; Table XVII, unit not given): 0.0013

FVNIPPLVK
A*1101 (binding information) [1, 9]: 0.0660

GIIQAQVDK
A0301 (binding information, HIV A03 motif peptides) [3, 8]: 0.0009

GIPIIPAGLK
A*1101 (binding information) [1, 9]: 0.0650

GIPIIPAGLKK
A0301 (HIV A03 Motif Peptides with Binding Information) [3, 10]: 0.0110
A*1101 (binding information) [1, 9]: 0.1700

GIRYQYNYL
A*0201 (binding information) ([4]; HIV A02 super motif peptides): 0.0001

GPAATLEEMM
B*0702 binding (HIV B07 Super Motif Peptides with Binding Information) [2]: 0.0020

GPGIIKARV
B*0702 binding (HIV B07 Super Motif Peptides with Binding Information) [2]: 0.0002

GPGIIKARVLA
B*0702 binding (HIV B07 Super Motif Peptides with Binding Information) [2]: 0.0002

GPKVKQWPL
B*0702 (binding information) [2]: 0.0150

HPAGLKKKKS
B*0702 (binding information) [2]: 0.0001

HPVIIAGPI
B*0702 binding (HIV B07 Super Motif Peptides with Binding Information) [2]: 0.0012

IIGVYYDPSK
A*1101 (binding information) [1, 9]: 0.0001

IILALQDSGL
A*0201 (binding information) ([4]; HIV A02 super motif peptides): 0.0005

IILKTAVQMA
A0301 (HIV A03 Motif Peptides with Binding Information) [3, 10]: 0.0003
A*0201 (binding information) ([4]; HIV A02 super motif peptides): 0.0033

IILKTAVQMAV
A*0201 (binding information) ([4]; HIV A02 supermotif peptides): 0.0005

IIPDKWTVQPI
B*0702 (binding information) [2]: 0.0012

IIPGSQPKTA
B*0702 (binding information) [2]: 0.0007

IIPRISSEVHI
B*0702 (binding information) [2]: 0.0330

IIPVIIAGPIA
B*0702 binding (HIV B07 Super Motif Peptides with Binding Information) [2]: 0.0590

IIVASGYIEA
A0301 (HIV A03 Motif Peptides with Binding Information) [3, 10]: 0.0003

ILKEPVIIGV
A*0201 (binding information) ([4]; HIV A02 super motif peptides): 0.0055

ILQQLLFIIIF
A0301 (binding information, HIV A03 motif peptides) ([3]; binding value for HLA-A*0301, unit not given): 0.0130

IPIIIYCAPA
B*0702 binding (HIV B07 Super Motif Peptides with Binding Information) [2]: 0.0130

IPMFSALSIEGA
B*0702 binding (HIV B07 Super Motif Peptides with Binding Information) [2]: 0.0004

IPVGEIYKRW
B*0702 binding (HIV B07 Super Motif Peptides with Binding Information) [2]: 0.0002

ISPILTVPVK
A*1101 (binding information) [1, 9]: 0.0310

IVASCDKCQL
A*0201 (binding information) ([4]; HIV A02 supermotif peptides): 0.0006

IVASCDKCQLK
A*0301 binding information ([3]; binding value, no unit given): 0.0970
A0301 (HIV A03 Motif Peptides with Binding Information) [3, 10]: 0.0970
A*1101 (binding information) ([1]; HIV A03 supermotif peptides, binding value, no unit given): 0.1000
A*1101 (binding information) [1, 9]: 0.1000

KAYDTEVIINV
A*0201 (binding information) ([4]; HIV A02 super motif peptides): 0.0013

KIEELRQIIL
A*0201 (binding information) ([4]; HIV A02 super motif peptides): 0.0001

KIEELRQIILL
A*0201 (binding information) ([4]; HIV A02 supermotif peptides): 0.0002
